The values below are quoted from earlier work in publication PMC11381810.

As usually defined, the Kd is the free concentration of one partner at which half of the binding sites on the other are occupied at equilibrium, for simple one-to-one binding.

In data set [1] the target is syntaxin-1 SNARE motif (Rattus norvegicus) (UniProt P32851). Particulars: cited from earlier work.
In data set [2] the target is syntaxin-1 dimer SNARE motif (Rattus norvegicus) (UniProt P32851). Conditions: cited from earlier work.

Chain of syntaxin-1 dimer SNARE motif (P32851 191-253): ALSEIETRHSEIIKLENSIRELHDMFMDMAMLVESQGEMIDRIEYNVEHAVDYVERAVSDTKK
Chain of syntaxin-1 SNARE motif (P32851 191-253): as above

On to “syntaxin-1 SNARE motif (from UniProt P32851)”, for which the Kd in data set [1] was 1.4 µM.

On to “syntaxin-1 dimer SNARE motif (from UniProt P32851)”, for which the dissociation constant Kd in data set [2] is 12 µM.
